In article PMC10659578, “Mechanism of stepwise electron transfer in six-transmembrane epithelial antigen of the prostate (STEAP) 1 and 2” (eLife, 2023) one finds rate constant of the B to C conversion (reduction of the heme of 1.5 uM STEAP1 pre-incubated with 1.5 uM b5R after mixing with 10 uM NADH; rapid-scan stopped flow, anaerobic) and Kd data, which are given here for 1 molecule.

In experiment [1] the target is Rabbit six-transmembrane epithelial antigen of the prostate 1 (STEAP1) (rabbit).
Experiment [2] has the same target. Put plainly: BLI; STEAP1 immobilised on amine reactive second-generation biosensors (EDC/Sulfo-NHS); b5R at 20, 10, 5, 2.5, 1.3 and 0.6 uM; 30 C, 1000 rpm; 20 mM HEPES pH 7.5, 150 mM NaCl, 0.1% LMNG, 0.1% BSA; KD from equilibrium responses (Req) against [b5R].

B1: Mouse cytochrome b5 reductase, soluble form (residues 24-301) (enzyme)
chain: SKVPLKQGRSLMDWIRLTKSGKDLTGLKGGLIEVTEEELKKHNKKEDCWICIRGFVYNVSPYMEYHPGGEDELMRAAGADGTDLFNEVHRWVNYESMLKECLVGRMAVKPAVPKDCHEGKRVLNGMLPKSQMSDTLPRDVTDTLPREDLSSPSYDWFQTESSVTIVVYTKQKNISLDSVIVDLQDDSLRAEAVIKDHSYLVHVGLSHEVQENFSVRVIENVGKIEIVLQKKESVSWQCLGDHLEKHDSFIPKKDTGLYYRRCQLISKEDVTHDTRLFC
B1 registered a rate constant of the B to C conversion (reduction of the heme of 1.5 uM STEAP1 pre-incubated with 1.5 uM b5R after mixing with 10 uM NADH; rapid-scan stopped flow, anaerobic) in experiment [1] of 0.13 s^–1. In addition, in experiment [2], the Kd stood at 5.9 µM.
